This is an account of results in US11306156.

Usually pKd stands for the Kd on a negative log10 scale, so that one unit is a factor of ten.

Test [1] concerns the target D3H44 light chain Q124E_Q160E_T180E_C214S. The test can be described thus: LCCA, SPR tag readout, L1:L2 DNA 1:3 normalized to 1:1; competitor m20.
Test [2] addresses D3H44 light chain P44F_S131K. The test can be described thus: LCCA, SPR tag readout, L1:L2 DNA 1:3 normalized to 1:1; competitor m22.
Test [3] has as its target D3H44 light chain Q124E_Q160E_T180E_C214S. The test can be described thus: LCCA, SPR tag readout, L1:L2 DNA 1:9 normalized to 1:1; competitor m20.
The target of test [4] is D3H44 light chain P44F_S131K. The test can be described thus: LCCA, SPR tag readout, L1:L2 DNA 1:9 normalized to 1:1; competitor m22.
Test [5] deals with D3H44 light chain T178R with N-terminal HA or FLAG tag. The test can be described thus: LCCA (SPR tag readout), L1:L2 DNA 1:3, normalized to 1:1; competing light chain m13.
For test [6], the target named is D3H44 light chain Q38R_S131K. The test can be described thus: LCCA, SPR tag readout, L1:L2 DNA 1:3 normalized to 1:1; competitor m19.
The target in test [7] is D3H44 light chain Q38E_Q124E_Q160E_T180E. The test can be described thus: LCCA, SPR tag readout, L1:L2 DNA 1:3 normalized to 1:1; competitor m21.
Test [8] addresses D3H44 light chain Q38R_S131K. The test can be described thus: LCCA, SPR tag readout, L1:L2 DNA 1:9 normalized to 1:1; competitor m19.
For test [9], the target named is D3H44 light chain Q38E_Q124E_Q160E_T180E. The test can be described thus: LCCA, SPR tag readout, L1:L2 DNA 1:9 normalized to 1:1; competitor m21.
The target in test [10] is D3H44 light chain Q124E_T180E (Kabat), N-terminal HA or FLAG tag. The test can be described thus: LCCA co-expression, competing light chain m36, L1:L2 DNA 1:3 normalized to 1:1, SPR tag read-out.
Test [11] addresses D3H44 light chain S131K (Kabat), N-terminal HA or FLAG tag. The test can be described thus: LCCA co-expression, competing light chain m37, L1:L2 DNA 1:3 normalized to 1:1, SPR tag read-out.
Test [12] deals with tissue factor (TF) antigen (UniProt P13726). The test can be described thus: SPR, Fab captured on anti-penta-His, TF as analyte, 1:1 fit; batch C. (In general: Surface plasmon resonance follows binding to a sensor surface in real time, without labels.)
For test [13] the target is unchanged. The test can be described thus: SPR, Fab captured on anti-penta-His, TF as analyte; against wild-type D3H44 Fab; batch C.
For test [14] the target is unchanged. The test can be described thus: SPR as for KD; reference: wild-type D3H44 Fab; batch C (+).
Test [15] has the same target. The test can be described thus: SPR, Fab captured on anti-penta His surface, TF as analyte, 1:1 fit.
The target is the same in test [16]. The test can be described thus: SPR, ProteOn XPR36; His-tagged Fab captured on anti-penta-His, TF injected; 1:1 fit; batch C (+).
The target is the same in test [17]. The test can be described thus: SPR (ProteOn), against wild-type D3H44 Fab; estimated value taken from the Fab differing only in L chain tag.
Test [18] shares this target. The test can be described thus: SPR (ProteOn), Fab captured by anti-penta-His, TF as analyte, 1:1 fit; estimated value taken from the Fab differing only in L chain tag.
The target is the same in test [19]. The test can be described thus: SPR, Fab captured on anti-penta-His, TF as analyte, 1:1 fit; estimated value from Fab differing only in L chain tag.
For test [20] the target is unchanged. The test can be described thus: SPR (ProteOn XPR36): His-tagged Fab captured on anti-penta-His surface, TF as analyte, 1:1 fit; value estimated (*) from the Fab differing only in the L chain tag.
The target is the same in test [21]. The test can be described thus: vs wild-type D3H44 Fab (estimated wt KD […]); SPR; estimated (*) from Fab differing only in L chain tag.
Test [22] shares this target. The test can be described thus: SPR, Fab captured on anti-penta-His, TF as analyte, 1:1 fit; estimated (*) from Fab differing only in L chain tag.

pKd: −log10 of the molar value.

Regarding “D3H44 Fab heavy chain L45P_K145T_H172R_Q179E”, the H1L1:H1L2 normalized median ratio in test [1] came to 6%; in test [2], 94%; in test [3], 8%; in test [4], 92%. In addition, the H2L2:H2L1 normalized median ratio in [1] was determined as 6%; in test [2] it was 94%; in test [3], 8%; in test [4] it was 92%. For the same substance, the H1L1:H1L2 normalized median scalar value ln(r1/f1) in test [2] worked out at 2.78; in [4] it was 2.42.
Consider “D3H44 Fab heavy chain L143D_K145T_Q179E with C-terminal ABD2-His6 tag”, for which, in test [5], the H1L1:H1L2 normalized median ratio came out at 79% and the H1L1:H1L2 normalized median scalar value ln(r1/f1) was found to be 1.31.
“D3H44 Fab heavy chain Q39E_K145T_H172R_Q179E”: the H1L1:H1L2 normalized median ratio in test [6] worked out at 93%; in test [7], 7%; in test [8] it was 89%; in [9], 11%. In addition, the H1L1:H1L2 normalized median scalar value ln(r1/f1) came to 2.53 in [6] and 2.09 in test [8].
Regarding D3H44 Fab heavy chain Q39E_K145T_Q179E, the H1L1:H1L2 normalized median ratio was found to be 93% in [6], 7% in test [7], 90% in test [8] and 10% in test [9]. The H1L1:H1L2 normalized median scalar value ln(r1/f1) in test [8] was determined as 2.16.
Consider D3H44 Fab heavy chain Q39R_H172R_S186R, for which the H2L2:H2L1 normalized median ratio came to 6% in test [6], 94% in [7], 7% in test [8] and 93% in test [9].
Turning to D3H44 Fab heavy chain Q39R_S186R, the H2L2:H2L1 normalized median ratio in test [6] came to 4%; in test [7], 96%; in [8] it was 4%; in [9], 96%.
For “D3H44 Fab heavy chain S186R (Kabat), C-terminal ABD2-His6 tag”, the H2L2:H2L1 normalized median ratio in test [10] is 96 of 100; in test [11], 4 of 100.
“D3H44 Fab heterodimer, H1 Q179R / L1 S131E (H1L1 Fab of LCCA Set # 9980)” showed a pKd in [12] of 9.80. This substance returned a change in median KD compared to wild type, -(log(KD design)-log(KD wt)) in test [13] of 0.
For the substance “D3H44 Fab heterodimer, H1 S186K / L1 Q124E_T178E (H1L1 Fab of LCCA Set # 9850 and 9849)”, the pKd in test [12] was 9.82. In [13], this substance gave a change in median KD compared to wild type, -(log(KD design)-log(KD wt)) of 0.01.
Substance “D3H44 Fab heterodimer, H1 S186R / L1 Q124E_Q160E_T178E (H1L1 Fab of LCCA Set # 9867 and 9868)” had a pKd in [12] of 9.85. In addition, the change in median KD compared to wild type, -(log(KD design)-log(KD wt)) in test [13] was found to be 0.06.
In the same order, the values of “D3H44 Fab heterodimer, H1 S186R / L1 Q124E_T178E_T180E (H1L1 Fab of LCCA Set # 9889 and 9890)” are 10.30 and 0.49.
In test [12], “D3H44 Fab heterodimer, H1 S186R / L1 S131E (H1L1 Fab of LCCA Set # 9981 and 9985)” gave a pKd of 9.92. The same substance yielded a change in median KD compared to wild type, -(log(KD design)-log(KD wt)) in test [13] of 0.1.
The substance “D3H44 Fab heterodimer, H1L1 of LCCA Set # 9611 (H1 L143E_K145T_H172R; L1 Q124R_Q160K_T178R)” gave a change in median KD compared to wild type, -(log(KD design)-log(KD wt)) in test [14] of 0.12. In addition, in test [15], the Change in KD with respect to wild type (-(log(KD design) - log(KD wt))) stood at 0.12 and the pKd is 9.92. The substance also gave a pKd in test [16] of 9.92.
For “D3H44 Fab heterodimer, H1L1 of LCCA Sets # 9807 and 9808 (H1 Q179R; L1 Q124E_S176L_T180E)”, the change in median KD compared to wild type, -(log(KD design)-log(KD wt)) in [14] is -0.02. The substance also gave a pKd in test [16] of 9.77.
“D3H44 Fab heterodimer, H1L1 of LCCA Sets # 9881 and 9882 (H1 S186R; L1 Q124E_S131T_T178F_T180E)” returned a change in median KD compared to wild type, -(log(KD design)-log(KD wt)) in test [14] of 0.15. Besides, in [16], the pKd is 9.96.
On to “D3H44 Fab heterodimer, H1L1 of LCCA set 9131 (H: L124E_K145M_Q179E; L: S131K_V133G_S176R)”, for which, in test [17], the Change in KD with respect to wild type (-(log(KD design) - log(KD wt))) is 0.02. The pKd in [18] is 9.82.
Take “D3H44 Fab heterodimer, H1L1 of LCCA set 9645 (H: L143E_K145T_Q179E; L: Q124K_T178R)”: in test [17], the Change in KD with respect to wild type (-(log(KD design) - log(KD wt))) was 0.05. The pKd in test [18] was 9.85.
On to “D3H44 Fab heterodimer, H1L1 of LCCA set 9651 (H: L143E_K145T_Q179E; L: Q124R_Q160K_T178R)”, for which the Change in KD with respect to wild type (-(log(KD design) - log(KD wt))) in [17] was 0.02. In test [18], the pKd was 9.82.
In the case of “D3H44 Fab heterodimer, H1L1 of LCCA set 9657 (H: L143E_K145T_Q179E; L: Q124R_T178K)”, the Change in KD with respect to wild type (-(log(KD design) - log(KD wt))) in [17] was -0.08. Besides, the pKd in test [18] is 9.72.
Take “D3H44 Fab heterodimer, H1L1 of LCCA set 9683 (H: L143E_K145T_Q179E; L: T178R)”: in [17], the Change in KD with respect to wild type (-(log(KD design) - log(KD wt))) is -0.28. Moreover, the pKd in [18] is 9.52.
For the substance “D3H44 Fab heterodimer, H L124E_L143E_K145T / L Q124K_V133G_S176R_T178K”, in [19], the Change in KD with respect to wild type (-(log(KD design) - log(KD wt))) was -0.12 and the pKd was 9.68.
As to “D3H44 Fab heterodimer, H L124E_L143E_K145T / L Q124K_V133G_S176R_T178R”, in test [19], the Change in KD with respect to wild type (-(log(KD design) - log(KD wt))) was -0.07 and the pKd was 9.74.
Turning to “D3H44 H1L1 Fab heterodimer of LCCA set 9079 (H1 K145T_Q179E; L1 S131K)”, in test [20], the Change in median values of KD of h1|1 Fab heterodimer compared to wild type (-(log(KD design)-log(KD wt))) is -0.01 log units and the negative logarithm of the Kd (pKd) is 9.80.
In the same order, the values of “D3H44 H1L1 Fab heterodimer of LCCA set 9635 (H1 L143E_K145T_Q179D; L1 Q124R_T178R)” are 0.04 log units and 9.85.
“H1L1 Fab heterodimer of LCCA set 9623 (D3H44 Fab, H1 L143E_K145T_Q179D, L1 Q124R_Q160K_T178R; L chain tag differs from the measured Fab)”: the change in median KD compared to wild type, -(log(KD design)-log(KD wt)) in test [21] was 0.39. Moreover, in test [22], the pKd was 10.22.
In the same order, the values of “H1L1 Fab heterodimer of LCCA set 9651 (D3H44 Fab, H1 L143E_K145T_Q179E, L1 Q124R_Q160K_T178R; L chain tag differs from the measured Fab)” are 0.02 and 9.82.
In the same order, the values of “H1L1 Fab heterodimer of LCCA sets 9140, 9142, 9144 and 9146 (D3H44 Fab, H1 L124E_K145T_Q179E, L1 S131K_V133G_S176R; L chain tag differs from the measured Fab)” are 0 and 9.80.
In the same order, the values of “H1L1 Fab heterodimer of LCCA sets 9663 and 9666 (D3H44 Fab, H1 L143E_K145T_Q179E, L1 Q124R_T178R; L chain tag differs from the measured Fab)” are -0.23 and 9.57.
